{"source": "patent US20040121942A1", "about": "(University of California, published 2004)", "key": {"[1]": {"molecular_target": "T1, endogenous wild-type PLB of rat cardiac myocytes (rat, UniProt P61016 1-52)", "T1 sequence (looked up)": "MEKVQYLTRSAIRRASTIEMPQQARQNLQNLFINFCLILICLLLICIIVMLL", "test": "cell-based or functional assay"}, "[2]": {"molecular_target": "T2, sense PLB (wild-type phospholamban) expressed from a recombinant adenovirus (human, UniProt P26678 1-52)", "T2 construct": "ID; PLB exists as pentamer and monomer; also called sPLB; wild-type PLB", "T2 sequence": "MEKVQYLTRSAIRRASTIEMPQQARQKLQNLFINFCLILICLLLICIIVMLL", "test": "Western blot of Sol8 cells co-infected with sPLB and K3E/R14E; bands read as heteropentamer"}}, "data": [{"binder": "K3E/R14E double point mutation of PLB expressed from a recombinant adenovirus (other, ID) MEEVQYLTRSAIREASTIEMPQQARQKLQNLFINFCLILICLLLICIIVMLL", "values": [{"measurement": "lowering of the EC50 of Ca2+ for SR Ca2+ uptake, adult rat myocytes", "setting": "[1]", "value": 36, "unit": "%"}, {"measurement": "binding result", "setting": "[2]", "value": "binds"}]}]}
